Results on two molecules are retold here after paper PMC7797033, “Single-molecule visualization of human RECQ5 interactions with single-stranded DNA recombination intermediates”.

The target of data set [1] is Human wild-type (wt) RAD51 (human) (UniProt Q06609).
The target in data set [2] is RAD51 (human, UniProt Q06609 1-339). Nature of the data set: BLI; 2 mM ATP, 2 mM Mg2+; 2 uM RAD51; BLI: 25 mM Tris-HCl pH 7.5, 50 mM KCl, 2 mM MgCl2, 200 ug/mL BSA, 0.05% Tween 20, 2 mM ATP, room temperature; curtain buffer not in the material. The settings on record: protein: recombinant; tags: none stated for BLI prep; chain copies: 10; label: 5' biotin. (In general: BLI is a label-free optical method that tracks binding on a fibre tip over time.)
RAD51, sequence (Q06609 whole entry): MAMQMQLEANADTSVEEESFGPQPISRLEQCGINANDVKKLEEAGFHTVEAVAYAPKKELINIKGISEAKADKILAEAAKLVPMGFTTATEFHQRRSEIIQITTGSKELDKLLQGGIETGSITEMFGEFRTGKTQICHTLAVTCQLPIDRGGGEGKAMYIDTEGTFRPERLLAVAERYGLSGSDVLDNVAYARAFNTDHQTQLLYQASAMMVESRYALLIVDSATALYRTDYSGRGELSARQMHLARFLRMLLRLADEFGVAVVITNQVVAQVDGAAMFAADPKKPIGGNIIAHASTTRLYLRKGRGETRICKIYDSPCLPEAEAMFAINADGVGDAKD

Human wild-type (wt) RAD51 (human), sequence (Q06609 whole entry): as above

Turning to “RECQ5–F666A (from UniProt O94762 1-991) (enzyme)”, in data set [1], the processivity of unlabeled RECQ5–F666A on RAD51–ssDNA (ssDNA curtains) worked out at 5200 nt and the translocation velocity of unlabeled RECQ5–F666A on RAD51–ssDNA (ssDNA curtains) amounted to 28 nt/s. Consider TTTTTTTTTTTTTTTTTTTTTTTTTTTTTTTTTTTTTTTTTTT (ssDNA) [dT43-mer], for which the binding result in data set [2] was “binds”.
